Measured values reported in publication doi:10.1101/2023.04.08.536109.

Molecular target: Sulfolobus acidocaldarius GPN-loop GTPase Saci1281 (SaGPN) (Sulfolobus acidocaldarius)
Experiment: SEC

Sulfolobus acidocaldarius GPN-loop GTPase Saci1281 (SaGPN) (enzyme)
stoichiometry N: 2
